The target of assay [1] is T1, human MC5 receptor (human, UniProt P33032 1-325).
T1 construct: whole, on cells; It was tested as crude membranes prepared from cells expressing the receptor; also called hMC-5R

In assay [2] the target is T2, human MC4 receptor (human, UniProt P32245 1-332).
T2 construct: whole, on cells; It was tested as crude membranes prepared from cells expressing the receptor; also called hMC-4R

Assay [3] addresses rhesus melanocortin-4 receptor protein (rhesus monkey (Macaca mulatta)).
Assay [4] addresses T3, human MC3 receptor (human, UniProt P41968 1-323).
T3 construct: whole, on cells; It was tested as crude membranes prepared from cells expressing the receptor; also called hMC-3R

In assay [5] the target is T4, rhesus melanocortin-4 receptor protein (rhesus monkey (Macaca mulatta), UniProt Q8HXX3 1-332 (cynomolgus entry)).
T4 construct: This is the full-length 332 amino acid receptor encoded by pVE3099; also called rhMC-4R; rhesus MC-4R
Description: (§1) Reactions were incubated for 1 hour without shaking and then filtered through 96-well filter plates (Packard corp.). Filters were washed three times with TNE buffer (50 mM Tris pH 7.4, 5 mM EDTA, 150 mM NaCl), dried and counted using Microscint-20 in a Topcount scintillation counter (Packard).
(§2) Membranes prepared from rhesus MC-4R transfected cells were evaluated alongside membranes prepared from human MC-4R, MC-4R, and MC-5R expressing cells.

The target in assay [6] is T3, human MC3 receptor. The source holds these as a separate data set.
Description: as §1, §2
The target in assay [7] is T1, human MC5 receptor. This is another data set of the same source.
Description: as §1, §2
Assay [8] concerns the target T2, human MC4 receptor. The source holds these as a separate data set.
Description: as §1, §2

Where two headings read alike, the source gives them in different places. Where no end group is shown, it is not given here.

Broadly, the IC50 is the point on the concentration scale where inhibition reaches its midpoint.

T3 sequence (P41968 whole entry): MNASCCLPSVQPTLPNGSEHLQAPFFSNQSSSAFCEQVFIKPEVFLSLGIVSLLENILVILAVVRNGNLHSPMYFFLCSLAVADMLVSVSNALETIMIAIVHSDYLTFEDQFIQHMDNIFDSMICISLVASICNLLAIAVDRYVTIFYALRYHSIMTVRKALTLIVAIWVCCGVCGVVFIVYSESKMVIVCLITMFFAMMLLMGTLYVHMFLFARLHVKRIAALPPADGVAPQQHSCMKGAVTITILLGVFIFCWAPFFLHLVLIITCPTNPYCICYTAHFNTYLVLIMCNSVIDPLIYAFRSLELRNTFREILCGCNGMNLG
T1 sequence (P33032 whole entry): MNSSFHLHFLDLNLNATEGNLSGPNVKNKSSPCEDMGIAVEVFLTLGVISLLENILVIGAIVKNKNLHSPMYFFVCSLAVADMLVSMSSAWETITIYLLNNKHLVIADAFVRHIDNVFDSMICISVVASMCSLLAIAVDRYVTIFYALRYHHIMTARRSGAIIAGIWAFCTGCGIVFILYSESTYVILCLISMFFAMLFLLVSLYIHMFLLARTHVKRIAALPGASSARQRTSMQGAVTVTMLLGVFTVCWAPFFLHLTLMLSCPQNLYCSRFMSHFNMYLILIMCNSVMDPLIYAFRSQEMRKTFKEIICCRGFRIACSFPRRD
T2 sequence (P32245 whole entry): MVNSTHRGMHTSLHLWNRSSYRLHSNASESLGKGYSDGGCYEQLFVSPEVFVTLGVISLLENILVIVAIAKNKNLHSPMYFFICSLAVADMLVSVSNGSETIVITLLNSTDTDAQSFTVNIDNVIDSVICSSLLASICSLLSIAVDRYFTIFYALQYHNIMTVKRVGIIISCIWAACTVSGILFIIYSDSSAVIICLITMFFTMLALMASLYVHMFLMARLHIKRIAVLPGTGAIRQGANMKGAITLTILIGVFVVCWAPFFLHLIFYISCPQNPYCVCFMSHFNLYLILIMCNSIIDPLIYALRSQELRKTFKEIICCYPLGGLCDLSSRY
Sequence of rhesus melanocortin-4 receptor protein (rhesus monkey (Macaca mulatta)) (Q8HXX3 whole entry R167G): as the sequence (P32245 whole entry) above, with T11A, Y21H, A114T, I296V counted along it
T4 sequence (Q8HXX3 whole entry R167G): as the sequence (P32245 whole entry) above, with T11A, Y21H, A114T, I296V counted along it

Consider MTII (peptide), for which the IC50 was found to be 0.9 nM in assay [1], 0.1 nM in assay [2] and 0.1 nM in assay [3].

As for NDP-alpha-MSH (peptide), the IC50 was determined as 0.6 nM in assay [4], 0.4 nM in assay [1], 0.6 nM in assay [2] and 1.3 nM in assay [3].

For the molecule SHU-9119 (peptide), the IC50 turned out to be 0.3 nM in assay [4], 0.1 nM in assay [1], 0.1 nM in assay [2] and 0.2 nM in assay [3].

B1: Gamma MSH (peptide, UniProt P01189 77-87, looked up)
peptide: YVMGHFRWDRF
modifications: ends and bridges not checked
notes: domain: gamma MSH; The peptide is only a part of it; also called γ-MSH
In turn, B1 yielded an IC50 in assay [5] of 211 nM.

B2: Alpha MSH (peptide, UniProt P01189 138-150, looked up)
peptide: SYSMEHFRWGKPV
notes: domain: alpha MSH; The peptide is only a part of it; also called α-MSH; α-melanocyte stimulating hormone
B2 displayed an IC50 in assay [5] of 27 nM.

B3: Beta MSH (peptide, UniProt P01189 217-234, looked up)
peptide: DEGPYRMEHFRWGSPPKD
notes: domain: beta MSH; The peptide is only a part of it; also called β-MSH
With B3, the IC50 is 23 nM in assay [5], 23 nM in assay [6] and 166 nM in assay [7].

B4: ACTH1-39 (peptide, UniProt P01189 138-176, looked up)
peptide: SYSMEHFRWGKPVGKKRRPVKVYPNGAEDESAEAFPLEF
notes: domain: ACTH1-39; The numbers 1-39 count on the ACTH peptide, not on the precursor
As for B4, the IC50 in assay [5] was found to be 1.3 nM; in assay [6], 6 nM; in assay [7], 0.4 nM; in assay [8], 6 nM.

The values above are taken from patent publication US20030166009A1 (MERCK, published 2003).
